Data published in patent US20240131074A1 (TENEOBIO, published 2024).

What was measured:
[1] = biological target: T1, human PSMA expressed on cells (LNCaP, 22Rv1, PC3 cells stably transfected to express human PSMA) (human, UniProt Q04609 1-750); experiment: cell-binding assay on PSMA+ cells
T1 construct: whole, on cells; Type II transmembrane protein; The background section calls it a non-covalent homodimer; also called Prostate Specific Membrane Antigen; Glutamate Carboxypeptidase II

[2] = biological target: human PSMA protein (ELISA) (human, UniProt Q04609 44-750, limits assumed); experiment: ELISA on human PSMA protein
human PSMA protein (ELISA), sequence (Q04609 44-750 limits assumed): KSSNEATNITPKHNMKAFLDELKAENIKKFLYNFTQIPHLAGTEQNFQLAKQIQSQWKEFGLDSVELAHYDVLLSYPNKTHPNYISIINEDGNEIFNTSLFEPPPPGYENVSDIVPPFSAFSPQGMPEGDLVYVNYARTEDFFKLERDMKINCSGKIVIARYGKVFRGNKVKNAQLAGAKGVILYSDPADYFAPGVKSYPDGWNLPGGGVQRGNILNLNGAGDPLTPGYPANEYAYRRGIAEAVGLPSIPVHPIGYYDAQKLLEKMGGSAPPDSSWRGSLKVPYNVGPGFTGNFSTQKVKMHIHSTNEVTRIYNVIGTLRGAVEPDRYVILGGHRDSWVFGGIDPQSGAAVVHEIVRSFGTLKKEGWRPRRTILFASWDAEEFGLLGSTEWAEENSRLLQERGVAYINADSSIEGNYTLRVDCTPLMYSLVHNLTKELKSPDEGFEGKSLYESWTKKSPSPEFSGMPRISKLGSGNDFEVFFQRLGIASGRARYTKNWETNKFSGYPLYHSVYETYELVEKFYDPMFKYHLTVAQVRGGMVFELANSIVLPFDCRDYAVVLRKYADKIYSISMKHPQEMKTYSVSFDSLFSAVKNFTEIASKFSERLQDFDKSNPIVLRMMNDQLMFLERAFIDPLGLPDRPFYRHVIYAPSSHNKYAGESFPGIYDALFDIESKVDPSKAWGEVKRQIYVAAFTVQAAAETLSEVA
Description: The two indicated antibodies were tested for binding in a standard ELISA assay to human PSMA. The human PSMA protein was used at a concentration of 2 μg/mL to capture UniAbs at 50 ng/mL. Antibody binding was detected with a goat anti-human IgG HRP conjugated antibody (ThermoFisher 31413). All antibodies were diluted in 1× PBS with 0.05% Tween-20 and 1% dry milk powder.

T1 sequence (Q04609 whole entry): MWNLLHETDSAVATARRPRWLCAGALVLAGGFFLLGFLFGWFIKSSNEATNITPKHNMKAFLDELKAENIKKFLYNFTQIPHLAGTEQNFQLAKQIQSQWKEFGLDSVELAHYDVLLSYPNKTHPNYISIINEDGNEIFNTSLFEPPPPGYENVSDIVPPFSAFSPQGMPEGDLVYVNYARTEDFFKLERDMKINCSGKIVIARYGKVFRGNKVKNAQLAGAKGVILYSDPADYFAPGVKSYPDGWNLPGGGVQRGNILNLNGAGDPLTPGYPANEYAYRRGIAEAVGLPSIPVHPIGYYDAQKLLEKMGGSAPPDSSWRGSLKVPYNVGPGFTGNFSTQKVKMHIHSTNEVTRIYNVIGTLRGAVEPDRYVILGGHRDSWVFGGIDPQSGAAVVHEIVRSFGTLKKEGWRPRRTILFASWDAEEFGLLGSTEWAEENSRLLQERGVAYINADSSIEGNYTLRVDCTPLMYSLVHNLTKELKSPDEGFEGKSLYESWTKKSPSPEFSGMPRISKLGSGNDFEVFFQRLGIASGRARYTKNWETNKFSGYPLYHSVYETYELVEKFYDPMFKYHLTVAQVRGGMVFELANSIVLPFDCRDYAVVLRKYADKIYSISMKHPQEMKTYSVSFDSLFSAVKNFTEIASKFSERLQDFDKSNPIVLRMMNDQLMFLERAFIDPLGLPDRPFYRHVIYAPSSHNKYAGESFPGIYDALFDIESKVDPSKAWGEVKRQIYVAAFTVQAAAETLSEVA

| binding result [1] | binding result [2] | Binder |
| --- | --- | --- |
| binds | binds | Anti-PSMA heavy chain-only antibody (UniAb) Clone ID 325795 (antibody, V domains shown, Heavy chain-only antibody with no light chain) VH: EVQLLESGGGLVQPGGSLRLSCAASGFTFKFYAMSWVRQAPGKGPEWVSVISGSGGSTYYADSVKGRFTISRDNSKNTLHLQMNSLRAEDTAVYFCAKEIAEASRGFDYRGQGTLVTVSS |
| binds | binds | Anti-PSMA heavy chain-only antibody (UniAb) Clone ID 325972 (antibody, V domains shown, Heavy chain-only antibody with no light chain) VH: EVQLLESGGGVVQPGRSLRLSCAASGFSFSGYGMHWVRQAPGKEREWVAVISYDGSNKYYADSVKGRFTISRDNSKNTLYLQMNSLRAEDTAVYYCAKDANWGQHPDHTSFDYRGQGTLVTVSS |
